# Reference: US20140286975A1
# Assays:
# CD40L = CD40L (UniProt P29965); experiment: cell-based or functional assay
# CD40 = CD40 (UniProt P25942); experiment: cell-based or functional assay
# Sequence of UniProt P25942 (P25942 21-277 limits assumed): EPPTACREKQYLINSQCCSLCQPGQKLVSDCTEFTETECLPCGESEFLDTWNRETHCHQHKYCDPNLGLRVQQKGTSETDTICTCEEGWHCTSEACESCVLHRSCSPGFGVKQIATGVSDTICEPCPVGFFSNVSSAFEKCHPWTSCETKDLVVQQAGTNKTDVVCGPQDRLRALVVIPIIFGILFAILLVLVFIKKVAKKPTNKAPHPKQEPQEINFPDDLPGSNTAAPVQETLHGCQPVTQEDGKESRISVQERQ
# Sequence of UniProt P29965 (P29965 whole entry): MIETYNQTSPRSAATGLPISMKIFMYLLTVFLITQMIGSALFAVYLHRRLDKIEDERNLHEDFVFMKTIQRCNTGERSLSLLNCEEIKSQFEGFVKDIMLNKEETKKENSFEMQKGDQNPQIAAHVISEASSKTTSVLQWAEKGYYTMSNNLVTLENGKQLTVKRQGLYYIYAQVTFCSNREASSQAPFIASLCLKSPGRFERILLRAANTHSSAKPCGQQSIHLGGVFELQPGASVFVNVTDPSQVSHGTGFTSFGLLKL
Substance,"IFN-γ ELISpots upon recall, T-lymphocytes primed and restimulated by doubly-loaded dendritic cells (CD40L) [% decrease]",IFN-γ ELISpots upon restimulation of T-cells primed by doubly-loaded DCs (CD40) [% increase],IFN-γ ELISpots upon restimulation of T-cells primed by lysate-loaded DCs (CD40) [% increase],IFN-γ ELISpots upon restimulation of T-cells primed by mRNA-loaded DCs (CD40) [% increase],"IFN-γ ELISpots upon restimulation, self-antigen controls (fold increase) (CD40)"
anti-CD40L clone 40804 (R&D Systems) (antibody),68,,,,
antiCD40 clone 82111 (R&D Systems) (antibody),,8,51,86,6
